Experimental data taken from the DeepSol protein solubility set.

Experiment: soluble on expression in E. coli; label from the status in PepcDB or PDB records

With “MGSDKIHHHHHHMSLSSPASRPPLQIRATPVWSPQRDENAEHIVLSPDEQYELGRLGEIIEYRTAKLEILSQSEPADFLYLLIEGVVQACHSLKDGQRQIVAFYWPGDIFGLAEKGLYVNSSEAVTPCSVYRFPFRKLEKFLLEHPRIQQGFFVKAVHEIRTAQRHTITIGQLELPQRLAAFLVDCSEHDRYFDSESSTLSLPMLRYDIADYLGTSVEAVSRTFALLEKNGLVQRKGPRKLEISMKKLIDFSGIA” as the sequence, how does the “soluble on expression in E. coli” value read?
Its value is “not soluble”.

With “MGSDKIHHHHHHMSMAMEHDLLIVGGGPVGATLALALQYKGIDATVLEARAHGAAHHDQRALALSYGSILILERLGLWSGLKPKATAINTIHVSQRGSLGRSLLKAEDHDQPALGYVLSYGDLSAALDDAIRQFPGIQVRYEAEALAIKPGREAAHVEYQYQAQAYSCNSRMTVLADGGRSLADIPGLERETKHYGHDALVSKVSCELPHDNIAYERFTPAGPVALLPNGTRDFSLVWTGKAEEVQALLALDDAAFLEALHTHFGDRVGRFLTVGKRLSFPLKLSYLKPVTAPHLTVIGNAAQTMHPVAGQGFNVGMRDAWELAQLLAQTPSEEWGMDRMMQAYQASRKADTRGGLLFTDFLVNVFSNDIVGLRKIRSLGLGLLDMLPLAKQHLVSKMSFGPRG” as the sequence, how does the “soluble on expression in E. coli” value read?
The value was “not soluble”.

Which “soluble on expression in E. coli” value does the source give for “MGSDKIHHHHHHMSNPAYTAMWEKLNLDIPAHDGLLEVLGKFYGDIYMSQQGRLQGMEYLDFVLSEVHGLRIQELQQAKEQGKKIIGTFCVFVPEEITLAAGAVHVGLCSGADAGTEEAEKLVPRNTCALIKSFIGFKLARLCPFTESCDLVVGETTCDGKKKAYEAFAEHVPMHVMEVPNTKSDAARDLFKTEVLRYMQALQQLTGTAITPQALASGIRAVNAKRRALQRLSALRSADPAPISGRDALLINQVSFYDDPERFTHSINALCDQMEERIARKEGIAPAGTPRLLLSGCPMAVPNWKLPYIMESSGAVIVGEESCIGTRNTRDLVDESQETLDGMIDALVDRYMKIDCACFTPNTERLHNVTAMAQELKADGIVHYALKFCQPYAHEAFKIEKAAREKDIPVLSVETDYSMEDAEQLKTRVEAFVEMVRG” here?
Its value is “not soluble”.

Which “soluble on expression in E. coli” value does the source give for “MGSDKIHHHHHHMSNQHSWALSMNQIENCSCSHGCGCQFGGFPTSKDGGCEAILGFEILKGHFNDLDLSGLKMVFAAAWPSAMHEGNGKGALFIDNSANEEQVGALATIMSGQAGGMPVEVLGTLFSEFDGPIMADIKLNRQDYTSTVTIEGIIEVEQEPHINPVTGEINEVHISFPKGGFMWNDGFAGKTKLMKINHGNMAFSYSDTFAANAVVNWPNA” here?
Its value is “not soluble”.

With “MGSDKIHHHHHHMSNTGSLSYLRILDFTGEIGPYAAKLYAGLGADVIHIEPIAGDTLRSTGPFFGNRPGKERSMQFIYYNAGKRGLVLDLKKEKGKEVFVDLCKGADILFESFTPGYLDELGLSFDVLSAANPKLVQTSITPFGSFGPYSTYPGSDLTCSALGGFLYLAGIDNDKPVRACDNQAYRMAEVYAAVGSSIALLFAQKTGVGQFVDVSCMEAVGMALETAAQCWDLEGTLRRGRGKEAGSATIHPCKDGFIAIVAIVGRNKTMWTPFVQWMKEEGVEEWELFDNDNWINASYRESKAGYELFCRIFERFTMKHTKQYLYDAGQAHRVAVSPVSNGKDLLENPQLNHHDFWQRLYHEPVGAEVVCPGAPYEFGHLKWRLGDFAPTFGQHTAEVLGECGYSRSEIDALDREGVVHVAKS” as the sequence, how does the “soluble on expression in E. coli” value read?
Its value is “not soluble”.

Which “soluble on expression in E. coli” value does the source give for “MGSDKIHHHHHHMSQILQNFIKQAQYNPLHSLEEWEEDLLNRYPDPHSIVKEGKTTQEYRNYETPTRETVKEFYRLNHINQTYNFVLEKEKNFLKFDKKEMSVWDAVEFLNQLVDDSDPDTEMDQLQHLLQTSEAIRADGHPDWMVLTGFFHDMGKVLCLFGEPQWATVGDTYPVGCAFSDKIVFSEFFQENPDYNNPNYNTKYGIYEPNCGLINVHISWGHDEYFYQMMKNYLPEPALYMLRYHSFYPQHRENAYKHLMDNHDREMFKWVKLFNPYDLYSKNPTPPDWQKLRPYYEDLVAKYLPATLKF” here?
Its value is “not soluble”.

Which “soluble on expression in E. coli” value does the source give for “MGSDKIHHHHHHMSQQRPDRIKQMLHYLWQHRHLSTQQAIELFGYAEATVRRDFHYIASRYPGMVRGHGCIDFDDSTEDKEYVFDVKRTLQSEAKREIAALARTFIKDGDCFFLDSGSTCLELAKCLVDAKVKVICNDIKIANELGGFPHVESYIIGGLIRPGYFSVGESLALEMINAFAVERAFISCDALSIETGITNATMFEVGVKTRIIQRSREVILMADHSKFDTVEPHAVATLSCITTILSDSALPSAIARRYQQAGCRLIMSDPSSGAR” here?
The value was “not soluble”.

For “MGSDKIHHHHHHMSRRDEGNMVADAGALLPNGDTVSTDAIKVPAGRVNRLMRLGGLAAGIAGGATLQAIAGIARGTRPDARSLLASPANVRRVADELARMRGAAMKIGQLLSMDAGEVLPPELAQILARLRDRAHIMPPSQLGQVLEREWGAGWRRQFKRFDVRPIAAASIGQVHRARTRDGRDLAIKVQYPGVARSIDSDVSNVGALLRLSGLLPKGFDISPYLAEARRQLHEETDYAREGAQLKRFAEWLTDSDTFVVPQYHADLSTAQILAMSYVAGQPIETLADADAATRNRVMTALVDLSLREVFHFGAMQSDPNFANYRYVPQSGRIVLLDFGAARDLHPLVTKSYADMLRSGLVGDDHGIWDAARALGLISDGPDIGSSEARLLALIAGVFEVLRAQEFDFADQTLIRALNEEGMALAQSGYHPPSLPMDVLYLQRKFGGLFLLGNRLRTKLCLRDIIDPYL”, which “soluble on expression in E. coli” value is on record?
The value was “not soluble”.

Which “soluble on expression in E. coli” value does the source give for “MGSDKIHHHHHHMSRTLVLFDIDGTLLKVESMNRRVLADALIEVYGTEGSTGSHDFSGKMDGAIIYEVLSNVGLERAEIADKFDKAKETYIALFRERARREDITLLEGVRELLDALSSRSDVLLGLLTGNFEASGRHKLKLPGIDHYFPFGAFADDALDRNELPHIALERARRMTGANYSPSQIVIIGDTEHDIRCARELDARSIAVATGNFTMEELARHKPGTLFKNFAETDEVLASILTPKHS” here?
The value was “not soluble”.

Which “soluble on expression in E. coli” value does the source give for “MGSDKIHHHHHHMSRYLEMLSLFGVAGAHPGGLAFSKAVLQKAAPSPDQPILDAGCGTGQTAAYLGHLLYPVTVVDKDPIMLEKAKKRFANEGLAIPAYQAELEHLPFSSESFSCVLSESVLSFSRLTSSLQEISRVLKPSGMLIGIEAALKKPMPPAEKKQMMDFYGFTCLHEESEWHKLLRSYGFQKTEAMSLLPEDMEFEPTTEMDLSQTIDPIYYDTLQTHYQLMQLYSEYMGHCIFIAYK” here?
The value was “not soluble”.

For “MGSDKIHHHHHHMSSEHQLLVGLLKKLKADALVLPTLPEVAMRVQEVVSRPDSSPKQVAEIIGQDAAISARMIKVANSAMYSRGIKAENINAAVTRIGLTQIKAIATSVAMEQLFISTNEMVWEVMDEVWRASIEVTSAACALLLKYSKTHKGCGLNYDTLTLASLVHNIGALPVLTEAEANPHLFTSIEQLRALVRKMQGPLGRAVLKSWDFSPEVTEVVERWADLPYLPEQVTYLDFVRAAAFYTGELRAGHDLEERLDVFLQRGLPVSPEYLGSDEFLDNYHSIKLSYE”, which “soluble on expression in E. coli” value is on record?
Its value is “not soluble”.

For “MGSDKIHHHHHHMSSGITPPLIAGNLALDFINTQFGVGADRYECLNDDSSVVEWLHQAGVLNDTLAAPPAGLVERARELREDMQTLIVSAREGRGADPAIVNQVLERGHPIERLEWVPAYAAFQKQTYRRDLTSESLLQPVAQALVELLTKEDLHLVKECQAPDCVLLFHDQTKSHRRRWCSMASCGNRMKAAAHRARKSAT”, which “soluble on expression in E. coli” value is on record?
Its value is “not soluble”.

For “MGSDKIHHHHHHMSSIFEKYSVRRVINASGKMTILGVSTVDKEVIEAIGEGCKNFFIIEELINKTGEYIANLLGCESALIVSSASAGIAQSVGAMIAKDDMSLVYNVNNPKKQVKREIIIPKGHNVDYGVPVEVMIRLGGGEVVEAGYANMCNKEHIIREINENTAAIMYIKSHHCVQKSMLSVLDAVQVAKEYNLPLIVDAAAEEDLNVYYELGADLVIYSGAKAIEGPSSGLVIGKKKYIDNVKLQSKGIGRAMKIGKENIVGLTCAIERYISNDKVTLKEMEDKLNPFIDKINTIKGVSASITRDSAGREILRGEIDFNEDIINKSTQQIINELRSGEIAIYTRDYKANEGKIEIDIRSVTGSDLDTIYNRIKNIVES”, which “soluble on expression in E. coli” value is on record?
Its value is “not soluble”.

For “MGSDKIHHHHHHMSSIIAALTYFFKEVLVFVSYVKNNAFPQPLSKEEERHYLKRMAEGDEEARNRLIEHNLRLVAHIVKKFENTREHTEDLISIGTIGLIKAIESFSEGKGTKLATYAARCIENEILMHLRALKKVKKDVSLHDPIGTDKEGNEITLIDVLQEDSEDIADSIQLKMEKKQIYEYIHVLDDREKEVIVGRFGLDLEEERTQREIAKELGISRSYVSRIEKRALMKLFHEFYKHNHGKG”, which “soluble on expression in E. coli” value is on record?
Its value is “not soluble”.

With “MGSDKIHHHHHHMSSLPLQKSLYPLLRPLGAAYRVLMRARRRRYENGAACGTDVPCVSVGNIGWGGSGKTPVVQWLLQWAAVHGLHAVVLTRGYKASPPGLPYVVTPQSSAAHAGDEPLMLARSCPQATVVVDPVRSRSARWAQERLAPDFFVLDDGFQHVQVARDTDLVLLKKDDLHAEWGRVLPAGSWREGPEALSRAAAFCIKCGSGEFSGLVPDFENRLGSFGVPVFGFSLRPGALIPVCGAHEGAQLPAGAPYVLFSGVGDPAQVAVTVSSFLGYDPVRHHVFADHHGYTQADMDRMAGYGLPLVCTPKDAVKLTAPCGVPVWTLSLETNFHSVWNAQPPAGQAGEGFAQWWQCRWQRLAGLR” as the sequence, how does the “soluble on expression in E. coli” value read?
Its value is “not soluble”.

For “MGSDKIHHHHHHMSSPFDYFVVFAEMRTGSNFLEANLNALDGVACVGEAFNPHFIGYPNKTEILEVSQDMRDADPQCLIDAVRDARGVLAGFRFFHDHDPRVLDLVLSDPRCAKIILTRNPLDSYVSWKIAKETGQWKLTNIKRRKEAQARFDAEEFARHVEALQDFQVFLLNSLQRSGQTPFYVAYEDLQDLSVMNGLAQWLGVSARLEQLDDSLKRQNPSPVTSKVVNAGEMVEALSGLDRFNLTRTPNFEPRRGPAVPTYVTGAVTPLIYLPVRGGPEDEVRRWMADLDGVVDAALGTGLNQKQVRGWLKGNEGHRAFTVLRHPLARAHSAFCHRILNKGPGCFTKIRNTLRRQFSLPIPEGTPGLDYGRADHRAAFEAFLEFVRMNLAGQTAIRIDGSWCSQAQALSSFAEFVSPDLILREDEIATDLPSLARRFGHAEPPEPPRAAPDTPIPLSDIYDDALEALAADVYQRDYIVFGFGKWAGGQA”, which “soluble on expression in E. coli” value is on record?
Its value is “not soluble”.

With “MGSDKIHHHHHHMSSSQQIAKNARKAGNILKTISNEGRSDILYKIHDALKANAHAIEEANKIDLAVAKETGLADSLLKRLDLFKGDKFEVMLQGIKDVAELEDPVGKVKMARELDDGLTLYQVTAPVGVLLVIFESRPEVIANITALSIKSGNAAILKGGKESVNTFREMAKIVNDTIAQFQSETGVPVGSVQLIETRQDVSDLLDQDEYIDLVVPRGSNALVRKIKDTTKIPVLGHADGICSIYLDEDADLIKAKRISLDAKTNYPAGCNAMETLLINPKFSKWWEVLENLTLEGGVTIHATKDLKTAYFDKLNELGKLTEAIQCKTVDADEEQDFDKEFLSLDLAAKFVTSTESAIQHINTHSSRHTDAIVTENKANAEKFMKGVDSSGVYWNASTRFADGFRYGFGAEVGISTSKIHARGPVGLDGLVSYQYQIRGDGQVASDYLGAGGNKAFVHKDLDIKTVTL” as the sequence, how does the “soluble on expression in E. coli” value read?
Its value is “soluble”.

For “MGSDKIHHHHHHMSTDTDDDSGSHGCKAPDSDGEVAENIAIVAFERKMDTAEDIVDGIGDRYESIDILEYHGDVFEEYWGEYDCFIGLMASGIAMRKTAHLLDDKWDDPAICVVDEELTWAIPITGGHHGANQVADDLASMGAVPAMTTASEAADKQGVEKQAKALDAHVVNGDSTVATNLAVLDDELGPIERLDGPKAVLVDDDVTVLKRNKDDGIVLGCGSVAGADVEQFHAAWEQALDEADLDRDDVEFVATGTRKADEEGMLAAAEEWGLGVIAFEKETLEGFEGPTPSRSKELIGWPGIAEASAIAAGSEHDLLAEKTRYDEAVTVAIGR”, which “soluble on expression in E. coli” value is on record?
The value was “not soluble”.
